Laboratory results taken from article PMC7919418.
Like-named read-outs stand apart in the source and are kept apart here.

How the values were obtained:
[1] = biological target: T1, SFiNX[wild type] (Panx-Nxf2-Nxt1-Ctp) (Drosophila melanogaster, UniProt Q9W2H9;Q9VV73;Q9V3H8;Q24117 263-541;541-841;1-133;1-89); experiment: EMSA
[2] = biological target: T1, SFiNX[wild type] (Panx-Nxf2-Nxt1-Ctp); experiment: EMSA; remark: listed apart in the source

T1 sequence (Q9W2H9 263-541, chain 1 of 3): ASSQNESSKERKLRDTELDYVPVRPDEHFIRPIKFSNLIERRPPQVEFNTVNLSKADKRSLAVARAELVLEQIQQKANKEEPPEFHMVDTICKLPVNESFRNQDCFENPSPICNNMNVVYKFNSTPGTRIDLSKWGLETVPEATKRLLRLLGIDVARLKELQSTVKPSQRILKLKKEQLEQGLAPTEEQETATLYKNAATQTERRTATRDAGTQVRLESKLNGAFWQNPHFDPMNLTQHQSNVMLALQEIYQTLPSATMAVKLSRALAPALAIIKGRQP
T1 sequence (Q9VV73 541-841, chain 2 of 3): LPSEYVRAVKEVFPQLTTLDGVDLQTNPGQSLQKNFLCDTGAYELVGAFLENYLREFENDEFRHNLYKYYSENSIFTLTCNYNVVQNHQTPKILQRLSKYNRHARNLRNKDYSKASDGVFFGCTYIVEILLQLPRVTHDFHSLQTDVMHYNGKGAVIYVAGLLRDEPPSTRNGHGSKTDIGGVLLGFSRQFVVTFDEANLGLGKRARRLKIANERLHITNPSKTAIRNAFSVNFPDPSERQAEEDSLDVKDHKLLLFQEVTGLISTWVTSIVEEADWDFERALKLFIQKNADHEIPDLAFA
T1 sequence (Q24117 whole entry, chain 4 of 3): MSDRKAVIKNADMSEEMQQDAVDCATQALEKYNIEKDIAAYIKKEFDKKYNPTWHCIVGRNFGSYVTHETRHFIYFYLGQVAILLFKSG

B1: 25-bp dsDNA (dsDNA)
DNA 1: ACGCTCAAGTCAGAGGTGGCGAAAC
DNA 2: GTTTCGCCACCTCTGACTTGAGCGT
- binding result [1]: binds

Binder: CUCAUCUUGGUCGUACGCGGAAUAGUUUAAACUGU (ssRNA) [35-nt ssRNA]
- binding result [2]: binds

B2: 35-bp dsRNA (dsRNA)
RNA 1: CUCAUCUUGGUCGUACGCGGAAUAGUUUAAACUGU
RNA 2: ACAGUUUAAACUAUUCCGCGUACGACCAAGAUGAG
- binding result [1]: binds
